In patent US20220348651A1, “ENTPD2 ANTIBODIES, COMBINATION THERAPIES, AND METHODS OF USING THE ANTIBODIES AND COMBINATION THERAPIES” (Novartis AG, priority 2019, published 2022):

Experiments:
[1] = biological target: T1, RKO cells (Homo sapiens, UniProt Q9Y5L3); experiment: FACS binding to RKO cells with endogenous ENTPD2; details: read-out: Apparent FACS Affinity
T1 construct: colorectal cancer cells with endogenous ENTPD2 expression; host or cells: RKO
T1 sequence (Q9Y5L3 1-495): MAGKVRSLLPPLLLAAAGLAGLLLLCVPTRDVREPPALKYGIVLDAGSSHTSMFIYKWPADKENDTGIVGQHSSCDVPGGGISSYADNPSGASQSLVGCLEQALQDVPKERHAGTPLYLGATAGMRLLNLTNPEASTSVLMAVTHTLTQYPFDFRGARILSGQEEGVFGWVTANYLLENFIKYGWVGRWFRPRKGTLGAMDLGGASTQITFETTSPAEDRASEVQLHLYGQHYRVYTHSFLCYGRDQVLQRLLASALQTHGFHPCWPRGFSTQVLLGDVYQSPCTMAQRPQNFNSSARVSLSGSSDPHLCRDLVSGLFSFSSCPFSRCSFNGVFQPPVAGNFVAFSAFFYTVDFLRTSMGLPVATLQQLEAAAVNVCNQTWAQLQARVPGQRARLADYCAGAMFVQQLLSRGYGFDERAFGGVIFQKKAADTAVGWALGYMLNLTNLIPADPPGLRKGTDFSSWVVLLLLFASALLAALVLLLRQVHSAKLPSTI
Method: (§1) FACS screening: Specific binding of candidate antibodies to endogenously expressed ENTPD2 was assessed by flow cytometry. Cells were rinsed thoroughly with 1×PBS and treated with Accutase (Millipore #SCR005) to lift from growth plates and resuspended at approximately 1×10^5 cells/90 μL in 1× FACS buffer (2% FBS+0.1% NaN3 in PBS). In a 96-well U-bottom plate, 10 μL of 10× antibody solution in FACS buffer was pre-seeded and 90 μL of cell suspension was added. Cell were incubated for 30 minutes at 4° C., washed 1× with cold PBS and resuspended in 100 μL of 1:500 secondary antibody 1× FACS buffer (Allophycocyanin conjugated F(ab′)2 goat anti-human IgG, Fcγ specific; Jackson Immunoresearch, Cat#109-136-098). After additional incubation for 15 min at 4° C., cells were washed twice with PBS and resuspended in 100 μL of 1×FACS buffer with 4 μg/mL propidium iodide (Life Technologies, Cat#P3566). Geometric mean fluorescence intensity was calculated on live single cells using FlowJo software.

[2] = test system: H520 cells; experiment: Cross reactivity: FACS binding to H520 cells (ENTPD3 and ENTPD8 expression); set-up: species or system human; details: 50 nM antibody
Method: as §1
H520 cells were identified as a cancer cell line with ENTPD3 (Ct 25) and ENTPD8 (Ct 26) expression by Taqman and were used for selectivity screening.

B1: mAb7: humanized anti-human ENTPD2 antibody from mAb17; VH SEQ ID NO: 25, VL SEQ ID NO: 78 (antibody, V domains shown)
VH: QVQLVQSGAEVVKPGASVKISCKASGYTFTDYNMDWVKQAPGQRLEWIGDINPKYDISTYNQQFKGKATITVDKSASTAYMELSSLRSEDTAVYYCARRGFFLYYGINYYYFDVWGQGTLVTVSS
VL: EIVLTQSPATLSASPGEEITLSCSASSSVSYIHWYQQKPGQAPRLLIYSTSNLASGIPARFSGSGSGTFYTLTISSVEPEDAAVYYCHQWSSYPWTFGGGTKLEIK
EC50 [1]: 0.4 nM | Apparent FACS binding at 50 nM [2]: No binding
